Measured values: patent publication US20240116985A1 (published 2024)
Starred links: 1 amine or outer side, 2 acyl side, 3 side chain; linkers in the order of their positions; H or OH if unused. Positions of bridges follow the written chain, without caps; N, C: chain ends. Non-standard residues stand in square brackets, D forms with d. Primed or numbered codes have the meaning given here. PyrS2″ = (S)-3-amino-1-((pent-4-en-1-yloxy)carbonyl)pyrrolidine-3-carboxylic acid (stapling residue), C=CCCCOC(=O)N1CC[C@@](N[*:1])(C(=O)[*:2])C1; B5(32) = 2-amino-2-(pent-4-en-1-yl)hept-6-enoic acid (bis-4-pentenylglycine, two alkene side chains), C=CCCCC(CCCC=C)(N[*:1])C(=O)[*:2]; B5(4) = 2,2-bis(4-pentenyl)glycine = 2-amino-2-(pent-4-en-1-yl)hept-6-enoic acid (stitching residue), C=CCCCC(CCCC=C)(N[*:1])C(=O)[*:2]; PyrS2 = (S)-3-amino-1-((pent-4-en-1-yloxy)carbonyl)pyrrolidine-3-carboxylic acid, C=CCCCOC(=O)N1CC[C@@](N[*:1])(C(=O)[*:2])C1; 3Br4FF = (S)-2-amino-3-(3-bromo-4-fluorophenyl)propanoic acid, O=C([C@H](Cc1ccc(F)c(Br)c1)N[*:1])[*:2]; B5(3) = 2,2-bis(4-pentenyl)glycine (stitching residue), C=CCCCC(CCCC=C)(N[*:1])C(=O)[*:2]; B5(28) = 2,2-bis(4-pentenyl)glycine, C=CCCCC(CCCC=C)(N[*:1])C(=O)[*:2]; Phe(3-COOH) = N[C@@H](Cc1cccc(C(=O)O)c1)C(=O)O; Phe(2-CF3) = N[C@@H](Cc1ccccc1C(F)(F)F)C(=O)O; Phe(3,4-Me2) = Cc1ccc(C[C@H](N)C(=O)O)cc1C; Bta = N[C@@H](Cc1csc2ccccc12)C(=O)O; αAllylPro = C=CC[C@@]1(C(=O)O)CCCN1; tBuAla = CC(C)(C)C[C@H](N)C(=O)O; 3Thi = N[C@@H](Cc1ccsc1)C(=O)O; PyrS2(4) = not defined here; Aib = CC(C)(N)C(=O)O

T1: B-cat-Halo (UniProt P35222 1-781)
T1 sequence (looked up): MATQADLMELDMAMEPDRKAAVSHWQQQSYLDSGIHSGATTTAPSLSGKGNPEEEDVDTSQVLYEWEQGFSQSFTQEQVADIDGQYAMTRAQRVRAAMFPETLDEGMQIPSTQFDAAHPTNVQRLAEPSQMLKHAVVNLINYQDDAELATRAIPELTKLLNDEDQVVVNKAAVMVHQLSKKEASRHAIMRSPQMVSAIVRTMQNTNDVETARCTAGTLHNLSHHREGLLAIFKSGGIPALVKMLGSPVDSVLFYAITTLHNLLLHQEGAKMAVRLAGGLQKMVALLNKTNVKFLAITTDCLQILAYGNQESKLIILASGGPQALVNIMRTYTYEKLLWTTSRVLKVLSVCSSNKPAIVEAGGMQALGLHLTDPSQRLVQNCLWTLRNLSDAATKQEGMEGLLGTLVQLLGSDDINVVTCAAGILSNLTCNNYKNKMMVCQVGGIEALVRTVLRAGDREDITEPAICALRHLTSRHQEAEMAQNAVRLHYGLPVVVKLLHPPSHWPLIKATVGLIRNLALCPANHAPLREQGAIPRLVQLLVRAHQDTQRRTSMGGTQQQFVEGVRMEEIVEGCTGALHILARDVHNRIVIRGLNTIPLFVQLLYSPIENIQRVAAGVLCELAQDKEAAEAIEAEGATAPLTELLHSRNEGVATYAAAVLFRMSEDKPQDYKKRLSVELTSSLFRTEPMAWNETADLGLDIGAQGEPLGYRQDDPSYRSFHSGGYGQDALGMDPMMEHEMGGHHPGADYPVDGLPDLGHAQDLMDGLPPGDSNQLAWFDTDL

B1: I-2268 (peptide)
peptide: Ac-[αAllylPro]D[tBuAla][B5(3)]D[Phe(3-COOH)]AAFL[PyrS2(4)][3Thi][Bta]NAAAAA-NH2
modifications: staple 1-4, 4-11; reading uncertain; also: printed as Ac-PL3-Asp-Npg-B5-Asp-3COOHF-Ala-Ala-Phe-Leu-PyrS2-3Thi-BztA-Asn-Ala-Ala-Ala-Ala-Ala-NH2

target: T1, B-cat-Halo; assay: cell-based or functional assay

| Binder | NanoBRET Abs IC50 [µM] |
| --- | --- |
| Ac-[αAllylPro]D[tBuAla][B5(32)]D[Phe(3-COOH)]AAFL[PyrS2][3Thi][Bta]NLLLLL-NH2 (staple 1-4, 4-11; also: earlier eluting staple isomer) [I-2279] | > 20 |
| Ac-[αAllylPro]D[tBuAla][B5(3)]D[Phe(3-COOH)]AAFL[PyrS2″][3Thi][Bta]NA[Aib]A[Aib]A[Aib]A-NH2 (staple 1-4, 4-11) [I-2273] | 6.2 |
| Ac-[αAllylPro]D[tBuAla][B5(32)]D[Phe(3-COOH)]AAFL[PyrS2][3Thi][Bta]NALL-NH2 (staple 1-4, 4-11; also: later eluting staple isomer) [I-2278] | 2.8 |
| Ac-[αAllylPro]D[tBuAla][B5(4)]D[Phe(3-COOH)]AAFL[PyrS2][3Thi][Bta]NALALALA-NH2 (staple 1-4, 4-11; also: later eluting staple isomer) [I-2284] | 12.9 |
| Ac-[αAllylPro]D[tBuAla][B5(4)]D[Phe(3-COOH)]AAFL[PyrS2][3Thi][Phe(3,4-Me2)]Q-NH2 (staple 1-4, 4-11) [I-2291] | 4.9 |
| B1 | 3.1 |
| Ac-[αAllylPro]D[tBuAla][B5(28)]D[Phe(3-COOH)]QAFV[PyrS2][3Thi][34MeF]A-NH2 (staple 1-4, 4-11) [I-2292] | 2.7 |
| Ac-[αAllylPro]D[tBuAla][B5(3)]D[Phe(3-COOH)]AAFL[PyrS2″][3Thi][Bta]NA[Aib]A[Aib]A-NH2 (staple 1-4, 4-11) [I-2272] | 3 |
| Ac-[αAllylPro]D[tBuAla][B5(4)]D[Phe(3-COOH)]QAFL[PyrS2][Phe(2-CF3)][3Br4FF]A-NH2 (staple 1-4, 4-11) [I-2290] | 7.9 |
| Ac-[αAllylPro]D[tBuAla][B5(4)]D[Phe(3-COOH)]AAFL[PyrS2][3Thi][Bta]NALALALA-NH2 (staple 1-4, 4-11; also: earlier eluting staple isomer) [I-2283] | 4.5 |
| Ac-[αAllylPro]D[tBuAla][B5(3)]D[Phe(3-COOH)]AAFL[PyrS2″][3Thi][Bta]NAAAAAAA-NH2 (staple 1-4, 4-11) [I-2269] | 2.3 |
| Ac-[αAllylPro]D[tBuAla][B5(32)]D[Phe(3-COOH)]AAFL[PyrS2][3Thi][Bta]NALL-NH2 (staple 1-4, 4-11; also: earlier eluting staple isomer) [I-2277] | 2.3 |
| Ac-[αAllylPro]D[tBuAla][B5(3)]D[Phe(3-COOH)]AAFL[PyrS2″][3Thi][Bta]NL-NH2 (staple 1-4, 4-11) [I-2274] | 2 |
| Ac-[αAllylPro]D[tBuAla][B5(4)]D[Phe(3-COOH)]AAFL[PyrS2][3Thi][Bta]NALALA-NH2 (staple 1-4, 4-11; also: earlier eluting staple isomer) [I-2281] | 4.3 |
